Source: patent publication US20140322196A1 (priority 2011, published 2014)

System: A/Parma/24/09 (Brisbane-like) (oseltamivir-resistant) H1N1
Format: cell-based, Influenza A virus
Settings: A/Parma/24/09 H1N1

B1: bLf: Lactoferrin from bovine milk, purchased from Morinaga Milk Industries, deprived of endotoxin (protein, UniProt P24627 20-708, looked up)
Lactotransferrin: APRKNVRWCTISQPEWFKCRRWQWRMKKLGAPSITCVRRAFALECIRAIAEKKADAVTLDGGMVFEAGRDPYKLRPVAAEIYGTKESPQTHYYAVAVVKKGSNFQLDQLQGRKSCHTGLGRSAGWIIPMGILRPYLSWTESLEPLQGAVAKFFSASCVPCIDRQAYPNLCQLCKGEGENQCACSSREPYFGYSGAFKCLQDGAGDVAFVKETTVFENLPEKADRDQYELLCLNNSRAPVDAFKECHLAQVPSHAVVARSVDGKEDLIWKLLSKAQEKFGKNKSRSFQLFGSPPGQRDLLFKDSALGFLRIPSKVDSALYLGSRYLTTLKNLRETAEEVKARYTRVVWCAVGPEEQKKCQQWSQQSGQNVTCATASTTDDCIVLVLKGEADALNLDGGYIYTAGKCGLVPVLAENRKSSKHSSLDCVLRPTEGYLAVAVVKKANEGLTWNSLKDKKSCHTAVDRTAGWNIPMGLIVNQTGSCAFDEFFSQSCAPGADPKSRLCALCAGDDQGLDKCVPNSKEKYYGYTGAFRCLAEDVGDVAFVKNDTVWENTNGESTADWAKNLNREDFRLLCLDGTRKPVTEAQSCHLAVAPNHAVVSRSDRAAHVKQVLLHQQALFGKNGKNCPDKFCLFKSETKNLLFNDNTECLAKLGGRPTYEEYLGTEYVTAIANLKKCSTSPLLEACAFLTR
  HI titre: 6 nM
